Results taken from PMC10287957, “RecF protein targeting to postreplication (daughter strand) gaps I: DNA binding by RecF and RecFR”.

How the values were obtained:
RecF [1] = biological target: T1, RecF (Escherichia coli, UniProt P0A7H0 1-357); assay: fluorescence anisotropy; conditions: 30 mM Tris-Cl pH 7.5, 100 mM NaCl, 10 mM MgCl2, 0.1 mM EDTA, 1 mM DTT, 30% glycerol, 0.1 mg/ml BSA, 10 nM DNA, 25 C, 3 mM ATP and 5 uM RecR where indicated
T1 sequence: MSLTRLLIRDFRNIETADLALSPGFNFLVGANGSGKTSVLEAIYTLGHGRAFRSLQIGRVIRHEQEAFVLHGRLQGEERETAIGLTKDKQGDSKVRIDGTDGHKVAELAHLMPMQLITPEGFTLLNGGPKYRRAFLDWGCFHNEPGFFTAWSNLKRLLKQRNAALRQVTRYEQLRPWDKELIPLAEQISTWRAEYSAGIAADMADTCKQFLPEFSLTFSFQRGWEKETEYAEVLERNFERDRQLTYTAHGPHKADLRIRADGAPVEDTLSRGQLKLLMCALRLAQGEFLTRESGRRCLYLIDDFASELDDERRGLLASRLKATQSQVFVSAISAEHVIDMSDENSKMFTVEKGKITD

[2] = biological target: RecF;RecR (Escherichia coli;Escherichia coli) (UniProt P0A7H0); assay: fluorescence anisotropy; conditions: 3 mM ATP, 5 uM RecR, 30 mM Tris-Cl pH 7.5, 100 mM NaCl, 10 mM MgCl2, 0.1 mM EDTA, 1 mM DTT, 30% glycerol, 0.1 mg/ml BSA, 10 nM DNA, 25 C, 3 mM ATP and 5 uM RecR where indicated
RecF [3] = biological target: T1, RecF; assay: fluorescence anisotropy; 3 mM ATP; 30 mM Tris-Cl pH 7.5, 100 mM NaCl, 10 mM MgCl2, 0.1 mM EDTA, 1 mM DTT, 30% glycerol, 0.1 mg/ml BSA, 10 nM DNA, 25 C; 3 mM ATP and 5 uM RecR where indicated; conditions: protein: recombinant; chain copies: 2; label: 5' FAM

40mer dsDNA 5FAM
Kd (RecF [1]): 0.175 µM

20mer dsDNA 5FAM
Kd [2]: 109 nM
Kd (RecF [1]; 3 mM ATP, h 2.4): 0.067 µM

20mer ssDNA 5FAM
Kd (RecF [1]; 3 mM ATP, h 1.1): 0.64 µM

iFAM css (circular 50mer)
Kd ([2]; circularized by ligation): 68.4 nM
Kd (RecF [1]; circularized by ligation): 0.0978 µM

40mer ssDNA 5FAM (random sequence)
Kd (RecF [1]): 0.134 µM

31mer dsDNA 5FAM
Kd (RecF [1]): 0.108 µM

iFAM ss_5P 50mer
Kd (RecF [1]; 5' phosphate): 0.116 µM
Kd (RecF [1]; no ATP, Kd nearly in the uM range, h 1, 5' phosphate): 1 µM

iFAM ss 50mer (dephosphorylated)
Kd (RecF [1]): 0.112 µM

B1: 31 polydT ssDNA 5FAM (ssDNA)
DNA: TTTTTTTTTTTTTTTTTTTTTTTTTTTTTTT
Kd (RecF [3]): 93 nM
